Experimental data: patent US20190323012, “TNF-Alpha-Binding Aptamer, And Therapeutic Use For Same” (BIOIS CO., LTD., published 2019)

B1: ATK001 (ssRNA)
RNA: GGGAGGACGAUGCGGCCACUGGCUAGGAACUCGAGUACUGGGUGGCAGACGACUCGCCCGA
modifications: 2'-F on all C and U
B2: ATK007 (ssRNA)
RNA: GCGGAAGCGUGCUGGGCCCGGCUUGCAGGUCGCCGAAAUGACCGCACACAUAACCCAGAGGUCGAU
modifications: 2'-F on all C and U

Legend:
ErbB3 = ErbB3 (UniProt P21860 P21860:20-643); assay: SPR; specificity control; printed as about 104 nM, read as 10^4 nM (lost superscript); details: tags: ThermoFisher
Description: (§1) In order to determine kinetics, the flow rate was changed to 30 μL/min.
(§2) In order to evaluate the binding specificity of the RNA aptamer to TNF-α through SPR analysis in the same manner as in <Example 4> above, the binding capability to ErbB2 (ThermoFisher, USA) (Nucleic Acid Ther. 2011 June; 21(3):173-178), ErbB3 (ThermoFisher, USA) (Proc. Natl. Acad. Sci. USA. (2012), 109(33):13237-42) and IGF-BP1 (ThermoFisher, USA) (Insulin-like growth factor-binding protein 1) (Crit. Rev. Oncol. Hematol. (2008), 66(2):91-98), in addition to TNF-α, was quantified in Kd. The results are shown in [FIG. 5] (FIG. 5a illustrating the results of measurement of binding capability of ATK001, FIG. 5b illustrating the results of measurement of binding capability of ATK007, and FIG. 5c illustrating the results of measurement of binding capability of ATK001).

ErbB2 = ErbB2 (UniProt P04626 P04626:23-652); assay: as above; details: tags: ThermoFisher
Description: as §1, §2

TNF-alpha [1] = molecular target: T1, TNF-alpha (Homo sapiens, UniProt P01375 P01375:77-233); assay: SPR; range given for ATK001 and ATK007 together; TNF-alpha immobilized on CM5, HBS; details: tags: recombinant human TNF-alpha (Sigma-Aldrich; biotinylated for SELEX); chain copies: 3
Description: SPR (Surface Plasmon Resonance) analysis was performed using a Biacore2000 (BIACORE, USA). A mixture of NHS (0.1 M N-hydroxysuccinimide) and DEC (0.4 M N-ethyl-N′-(dimethylaminopropyl)carbodiimide) in equal amounts (50 μL) was prepared and allowed to flow at 5 μL/min for 40 sec to thus activate a CM5 sensor chip. When 150-200 RU appeared, TNF-α protein to be immobilized was mixed with sodium acetate (pH 4.0) and allowed to flow at […]. In order to evaluate whether or not the protein was immobilized, 50 mM NaOH was allowed to flow for 5 sec. At 80° C., RNA aptamers ATK001 and ATK007 were denatured for 5 min and then restored at room temperature for 15 min, thus preparing an analyte (RNA).
as §1

TNF-alpha [2] = molecular target: T1, TNF-alpha; assay: EMSA; 30 mM Tris-HCl pH 7.5, 150 mM NaCl, 1.5 mM MgCl2, 2 mM DTT, tRNA, room temperature; radiolabeled RNA 50 pM; details: tags: recombinant human TNF-alpha (Sigma-Aldrich; biotinylated for SELEX); chain copies: 3
Description: The single-stranded nucleic acids (50 pM) binding to TNF-α, selected in <Example 2> and labeled with radioisotopes, were reacted with TNF-α protein in a manner in which the amount of TNF-α protein was increased (ranging from 0 to 320 nM). Here, the total amount of the aptamer, TNF-α protein, binding buffer (30 mM Tris-HCl (pH 7.5), 150 mM NaCl, 1.5 mM MgCl₂, and 2 mM DTT), and […] tRNA was adjusted to 40 μL, followed by binding at room temperature for 30 min. 6×BPB was added thereto, after which electrophoresis at 4° C. and 120 V using a 6% native gel (6% polyacrylamide, 1×TBE, 10 mM MgCl₂, 2% glycerol), exposure to an X-ray film and development were performed. The dissociation constant Kd was determined by calculating the amount of the RNA aptamer binding to TNF-α relative to the total RNA aptamer.
The 4% non-denatured acrylamide gel images of the TNF-α-bound RNA aptamer (C) and the TNF-α-unbound RNA aptamer (F), resulting from reacting the radioisotope-labeled 50 pM RNA aptamer ATK001 (a) and 50 pM RNA aptamer ATK007 (b) with TNF-α in a manner in which the amount of TNF-α was increased (ranging from 0 to 320 nM), are shown in a and b of FIG. 4. The percentage of RNA binding to TNF-α was determined and is graphed in c of FIG. 4.

T1 sequence (P01375 77-233, one chain of several): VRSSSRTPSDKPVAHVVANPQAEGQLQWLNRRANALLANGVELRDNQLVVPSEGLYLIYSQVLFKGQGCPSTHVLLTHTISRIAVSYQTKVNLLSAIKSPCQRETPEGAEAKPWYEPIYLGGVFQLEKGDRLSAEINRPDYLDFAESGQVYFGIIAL
Chain of ErbB3 (P21860 20-643, one chain of several): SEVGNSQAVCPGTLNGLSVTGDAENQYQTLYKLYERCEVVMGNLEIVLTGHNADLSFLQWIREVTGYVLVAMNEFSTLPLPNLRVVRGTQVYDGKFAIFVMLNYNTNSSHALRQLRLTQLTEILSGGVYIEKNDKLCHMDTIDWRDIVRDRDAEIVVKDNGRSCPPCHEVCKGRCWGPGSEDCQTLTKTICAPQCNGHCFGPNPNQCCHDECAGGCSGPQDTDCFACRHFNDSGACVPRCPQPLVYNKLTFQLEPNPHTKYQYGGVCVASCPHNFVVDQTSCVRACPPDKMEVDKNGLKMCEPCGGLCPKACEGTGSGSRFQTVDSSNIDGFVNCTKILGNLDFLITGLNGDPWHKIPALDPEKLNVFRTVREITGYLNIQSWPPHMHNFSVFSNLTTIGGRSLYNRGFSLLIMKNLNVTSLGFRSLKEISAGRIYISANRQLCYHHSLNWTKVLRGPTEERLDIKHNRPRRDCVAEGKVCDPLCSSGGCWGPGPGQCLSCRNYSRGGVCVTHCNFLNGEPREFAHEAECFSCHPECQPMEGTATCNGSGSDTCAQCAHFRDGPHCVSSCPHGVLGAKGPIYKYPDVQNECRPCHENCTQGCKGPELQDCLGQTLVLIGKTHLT

Binder | Kd (ErbB3) [µM] | Kd (ErbB2) [µM] | Kd (TNF-alpha [1]) [µM] | Kd (TNF-alpha [2]) [µM]
B1 | ~10 | ~10 | 0.00529 | –
B2 | ~10 | ~10 | 0.00529 | ~0.005
